Laboratory results as given in paper PMC9321131.
Like-named read-outs stand apart in the source and are kept apart here.

Key:
[1] = target: T1, rPvSPL2 (GST-PvSPL2) (Panicum virgatum, UniProt A0A8T0WHV5 1-470); test: EMSA
T1 sequence: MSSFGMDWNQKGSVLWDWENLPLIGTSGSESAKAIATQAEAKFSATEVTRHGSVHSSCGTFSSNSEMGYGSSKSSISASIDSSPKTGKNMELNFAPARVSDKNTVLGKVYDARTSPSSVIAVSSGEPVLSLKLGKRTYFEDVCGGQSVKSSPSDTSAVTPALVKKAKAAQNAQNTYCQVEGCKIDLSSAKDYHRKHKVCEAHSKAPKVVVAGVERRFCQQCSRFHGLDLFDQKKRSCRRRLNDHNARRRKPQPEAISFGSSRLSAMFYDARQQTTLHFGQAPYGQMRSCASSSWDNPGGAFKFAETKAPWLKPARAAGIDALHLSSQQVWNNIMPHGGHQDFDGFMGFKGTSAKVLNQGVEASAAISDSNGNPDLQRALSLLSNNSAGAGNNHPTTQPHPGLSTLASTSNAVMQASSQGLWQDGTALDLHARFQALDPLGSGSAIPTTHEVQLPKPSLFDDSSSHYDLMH

[2] = target: T1, rPvSPL2 (GST-PvSPL2); test: EMSA; remark: listed apart in the source

B1: PvLBO promoter probe 2 (site 2) (dsDNA)
DNA 1: TACAATATTTGTACTGTCATAATA
DNA 2: TATTATGACAGTACAAATATTGTA
binding result [1]: binds

B2: PvLBO promoter probe 1 (site 1) (dsDNA)
DNA 1: CCCCCCAAACGTACTATTTACTAT
DNA 2: ATAGTAAATAGTACGTTTGGGGGG
binding result [2]: binds
